Data on 25 molecules can be found in patent US20050261472A1, “Binding moieties for fibrin” (Dyax Corp., priority 1999, published 2005).

First the molecules themselves.
T1: fibrinogen (UniProt P02671 20-629; P02675 31-491; P02679 27-437, limits assumed)
T1 sequence (looked up) 1: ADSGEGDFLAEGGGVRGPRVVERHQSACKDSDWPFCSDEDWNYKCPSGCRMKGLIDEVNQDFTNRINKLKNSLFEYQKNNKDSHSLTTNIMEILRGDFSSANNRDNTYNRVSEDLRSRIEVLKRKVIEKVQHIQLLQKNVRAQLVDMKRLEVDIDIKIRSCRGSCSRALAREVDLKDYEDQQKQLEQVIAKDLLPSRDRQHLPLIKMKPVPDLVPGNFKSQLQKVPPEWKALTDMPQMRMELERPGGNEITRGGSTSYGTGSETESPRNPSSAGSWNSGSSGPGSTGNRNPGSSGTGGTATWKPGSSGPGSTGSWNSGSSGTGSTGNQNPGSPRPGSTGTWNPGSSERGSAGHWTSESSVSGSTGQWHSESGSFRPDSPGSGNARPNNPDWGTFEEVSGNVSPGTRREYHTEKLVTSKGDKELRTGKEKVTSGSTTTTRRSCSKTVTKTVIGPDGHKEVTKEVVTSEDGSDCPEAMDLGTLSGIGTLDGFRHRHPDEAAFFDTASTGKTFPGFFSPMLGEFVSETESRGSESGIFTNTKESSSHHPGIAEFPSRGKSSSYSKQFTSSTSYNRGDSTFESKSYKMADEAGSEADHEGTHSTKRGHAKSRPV
T1 sequence (looked up) 2: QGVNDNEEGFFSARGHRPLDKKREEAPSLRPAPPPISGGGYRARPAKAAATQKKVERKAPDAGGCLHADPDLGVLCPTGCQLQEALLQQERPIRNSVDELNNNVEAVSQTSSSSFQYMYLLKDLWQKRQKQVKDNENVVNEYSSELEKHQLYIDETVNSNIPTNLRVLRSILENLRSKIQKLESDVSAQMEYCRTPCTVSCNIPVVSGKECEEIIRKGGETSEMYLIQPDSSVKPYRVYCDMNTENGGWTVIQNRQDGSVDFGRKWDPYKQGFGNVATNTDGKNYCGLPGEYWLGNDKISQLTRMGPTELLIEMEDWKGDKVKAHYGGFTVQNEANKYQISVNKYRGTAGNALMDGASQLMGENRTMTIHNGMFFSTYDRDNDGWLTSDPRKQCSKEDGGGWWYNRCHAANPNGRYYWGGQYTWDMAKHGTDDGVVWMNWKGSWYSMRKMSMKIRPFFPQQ
T1 sequence (looked up) 3: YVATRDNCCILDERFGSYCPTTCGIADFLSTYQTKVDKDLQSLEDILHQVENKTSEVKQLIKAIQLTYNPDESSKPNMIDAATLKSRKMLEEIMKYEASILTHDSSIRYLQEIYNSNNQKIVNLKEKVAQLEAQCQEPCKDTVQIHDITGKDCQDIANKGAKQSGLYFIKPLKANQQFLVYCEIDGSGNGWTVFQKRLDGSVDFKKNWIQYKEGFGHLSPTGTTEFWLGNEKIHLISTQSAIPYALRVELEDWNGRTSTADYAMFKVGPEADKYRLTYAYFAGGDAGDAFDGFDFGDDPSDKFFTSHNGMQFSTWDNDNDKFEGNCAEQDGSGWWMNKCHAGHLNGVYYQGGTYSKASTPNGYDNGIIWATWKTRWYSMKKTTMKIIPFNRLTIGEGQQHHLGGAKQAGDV

B1: alanine scan peptide … (peptide)
peptide: H-LACDYYGTCLD-NH2
modifications: disulfide 3-9
SMILES: CC(C)C[C@H](NC(=O)[C@@H]1CSSC[C@H](NC(=O)[C@H](C)NC(=O)[C@@H](N)CC(C)C)C(=O)N[C@@H](CC(=O)O)C(=O)N[C@@H](Cc2ccc(O)cc2)C(=O)N[C@@H](Cc2ccc(O)cc2)C(=O)NCC(=O)N[C@@H]([C@@H](C)O)C(=O)N1)C(=O)N[C@@H](CC(=O)O)C(N)=O
B2: Gd-DTPA-Gly[SEQ ID NO: 21] (peptide)
peptide: GWFHCPYDLCHIL
modifications: disulfide 5-10 (inferred); not fully specified (N-terminus); printed as Trp-Phe-His-Cys-Pro-Tyr-Asp-Leu-Cys-His-Ile-Leu; also: Gd(III) chelated by DTPA on N-terminal Gly
B3: alanine scan peptide … (peptide)
peptide: H-LPCDYYGTCAD-NH2
modifications: disulfide 3-9
SMILES: CC(C)C[C@H](N)C(=O)N1CCC[C@H]1C(=O)N[C@H]1CSSC[C@@H](C(=O)N[C@@H](C)C(=O)N[C@@H](CC(=O)O)C(N)=O)NC(=O)[C@H]([C@@H](C)O)NC(=O)CNC(=O)[C@H](Cc2ccc(O)cc2)NC(=O)[C@H](Cc2ccc(O)cc2)NC(=O)[C@H](CC(=O)O)NC1=O
B4: alanine scan peptide … (peptide)
peptide: H-LPCAYYGTCLD-NH2
modifications: disulfide 3-9
SMILES: CC(C)C[C@H](NC(=O)[C@@H]1CSSC[C@H](NC(=O)[C@@H]2CCCN2C(=O)[C@@H](N)CC(C)C)C(=O)N[C@@H](C)C(=O)N[C@@H](Cc2ccc(O)cc2)C(=O)N[C@@H](Cc2ccc(O)cc2)C(=O)NCC(=O)N[C@@H]([C@@H](C)O)C(=O)N1)C(=O)N[C@@H](CC(=O)O)C(N)=O
B5: alanine scan peptide … (peptide)
peptide: H-LPCDAYGTCLD-NH2
modifications: disulfide 3-9
SMILES: CC(C)C[C@H](NC(=O)[C@@H]1CSSC[C@H](NC(=O)[C@@H]2CCCN2C(=O)[C@@H](N)CC(C)C)C(=O)N[C@@H](CC(=O)O)C(=O)N[C@@H](C)C(=O)N[C@@H](Cc2ccc(O)cc2)C(=O)NCC(=O)N[C@@H]([C@@H](C)O)C(=O)N1)C(=O)N[C@@H](CC(=O)O)C(N)=O
B6: TN7 isolate 3, phage-displayed LPCDYYGTCLD (peptide)
peptide: LPCDYYGTCLD
notes: Tested as a phage clone; not shown: not specified
B7: TN7 isolate 1, phage-displayed RPCDYYGTCFD (peptide)
peptide: RPCDYYGTCFD
modifications: not fully specified (bridges); cysteine pairing not given here
notes: as for B6
B8: TN7 isolate 2, phage-displayed LSCDYYGTCLR (peptide)
peptide: LSCDYYGTCLR
modifications: not fully specified (bridges); cysteine pairing not given here
notes: as for B6
B9: TN7 isolate 9, phage-displayed RSCNYYGTCLH (peptide)
peptide: RSCNYYGTCLH
modifications: not fully specified (bridges); cysteine pairing not given here
notes: as for B6
B10: TN7 isolate 10, phage-displayed RPCNYYGTCLH (peptide)
peptide: RPCNYYGTCLH
modifications: not fully specified (bridges); cysteine pairing not given here
notes: as for B6
B11: TN7 isolate 11, phage-displayed HDCQYYGTCLH (peptide)
peptide: HDCQYYGTCLH
modifications: not fully specified (bridges); cysteine pairing not given here
notes: as for B6
B12: TN7 isolate 12, phage-displayed FSCWYSLHCHR (peptide)
peptide: FSCWYSLHCHR
modifications: not fully specified (bridges); cysteine pairing not given here
notes: as for B6
B13: TN7 isolate 4, phage-displayed DPCSYYGTCLH (peptide)
peptide: DPCSYYGTCLH
modifications: not fully specified (bridges); cysteine pairing not given here
notes: as for B6
B14: TN7 isolate 5, phage-displayed LPCSYYGTCLH (peptide)
peptide: LPCSYYGTCLH
modifications: not fully specified (bridges); cysteine pairing not given here
notes: as for B6

Bridge positions count the residues as written; N and C are the ends. Ends that are not written are not given here.

One assay deals with DD(E) soluble fibrin-derived polypeptide (UniProt P02671). The experiment in a line: Kd against DD(E) target.
For the molecule B1, the Kd (commonly a measure of binding affinity in units of concentration) was determined as 2.9 µM.
H-LPCDYYGVCLD-NH2 (disulfide 3-9 (inferred)): the Kd amounted to 28 µM.
The molecule B2 showed a Kd of 2.9 µM.
Still for that read-out and setting: as for LPCDYXGTCLD (1-naphthyl residue (Nal) at position 6; C-terminal amide; N-terminus free) [substituted peptide LPCDYNalGTCLD], the figure is 125 µM; as for HCPYDLCHIL, 3.8 µM; as for WECPYGLCWIQ, 0.94 µM.
Still for that read-out and setting: for FHCPYDLCHIL the value was 0.41 µM.
Molecule H-LPCDYYGSCLD-NH2 (disulfide 3-9 (inferred)) gave a Kd of 26 µM.
FHCPYDLCHI displayed a Kd of 2 µM.
Same read-out and setting: as for LPCDYYATCLD (C-terminal amide; N-terminus free), the figure is 12.3 µM; as for WECPYGLCWI, 3.87 µM.
The same measure, in the same setting: for GFHCPYDLCHIL the value was 6.7 µM; for ECPYGLCWIQ, 2.23 µM.
The same measure, in the same setting: as for B3, the figure is 10.1 µM; as for B4, 5.9 µM.
The molecule B5 returned a Kd of 4.5 µM.

The target in another assay is T2, human serum albumin (human, UniProt P02768 25-609).
T2 construct: also called HSA
T2 sequence (P02768 25-609 limits assumed): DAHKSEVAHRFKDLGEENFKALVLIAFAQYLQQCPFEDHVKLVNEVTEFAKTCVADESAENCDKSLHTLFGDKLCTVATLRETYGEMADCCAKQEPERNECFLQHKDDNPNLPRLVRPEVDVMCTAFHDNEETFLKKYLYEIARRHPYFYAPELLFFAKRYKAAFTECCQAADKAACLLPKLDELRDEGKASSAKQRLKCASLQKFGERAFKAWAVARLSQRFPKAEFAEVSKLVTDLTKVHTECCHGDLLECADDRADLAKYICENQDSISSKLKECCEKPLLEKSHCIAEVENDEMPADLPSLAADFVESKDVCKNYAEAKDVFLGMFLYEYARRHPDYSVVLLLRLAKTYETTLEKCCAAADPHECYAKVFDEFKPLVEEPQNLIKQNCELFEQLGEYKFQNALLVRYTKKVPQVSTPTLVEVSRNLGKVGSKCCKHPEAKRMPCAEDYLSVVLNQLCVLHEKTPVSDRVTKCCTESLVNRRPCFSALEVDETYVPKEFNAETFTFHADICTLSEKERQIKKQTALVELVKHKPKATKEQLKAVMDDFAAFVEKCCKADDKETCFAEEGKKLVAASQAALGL
The assay is described as follows: phage ELISA on immobilised HSA. Here is the method: (§1) After five rounds of selection, the eluted phage were propagated and a portion plated to isolate phage plaques arising from individual clones. Ninety such clones were selected randomly, propagated, and tested individually for binding to fibrin in a dried fibrin plate assay. Dried fibrin plates were prepared as described above for the library screening. Phage samples (˜10⁹ phage each) were incubated in the dried fibrin plate wells in binding buffer (50 mM Tris, 150 mM NaCl, 2 mM CaCl₂, 0.05% Tween-20) containing 0.1% HSA. After 1 hour, the plates were washed 5 times with binding buffer. Anti-M13 antibody conjugated to horseradish peroxidase (Pharmacia) was added at 1/5000 dilution in binding buffer to the wells and incubated with the fibrin for 1 hour. The wells were again washed 5 times with binding buffer and the presence of the antibody/phage/fibrin complex was measured with HRP calorimetric reagents (3,3′,5,5′-tetrarnethylbenzidine (TMB) and H₂O₂). A high absorbance at 595 nm (due to oxidized TMB) was indicative of a tight phage/fibrin interaction, and phage clones corresponding to those wells were identified as bearing fibrin-binding moieties.
(§2) These fibrin-binding positive clones were subjected to several secondary ELISA assays. These assays followed a similar protocol to that detailed above for the dried fibrin ELISA assay, the only variations being the method of target immobilization and the omission of HSA from binding and wash buffers. A screen against DD(E) acted as a further confirmation of fibrin binding activity. An ELISA screen against fibrinogen (immobilized to the plate by the biotin/streptavidin protocol used for DD(E)) was a check against fibrinogen binding and confirmed that the negative selection procedure detailed in Example 2 had been effective. Finally, ELISAs to assay binding to immobilized HSA (passively bound to the polystyrene plate) and a target-free microtiter plate were controls to eliminate phage that bound promiscuously or nonspecifically.
Take B6: the binding result is recorded as “no binding”.
Take B7: the binding result was “no binding”.
The same measure, in the same setting: for B8 the value was “no binding”; for B9, “no binding”.
The same measure, in the same setting: for B10 the value was “no binding”.
Turning to B11, the binding result is listed as “no binding”.
Regarding B12, the binding result is given as “no binding”.
The same measure, in the same setting: as for B13, the entry is “no binding”.
On the same count and under the same terms, for B14 the value was “no binding”.

The target in another assay is T1, fibrinogen. The experiment in a line: phage ELISA on immobilised fibrinogen. As to the method:
as §1, §2
Consider B7, for which the binding result is on record as “no binding”.
Take B8: the binding result was “no binding”.
Same read-out and setting: as for B9, the entry is “no binding”.
Still for that read-out and setting: for B10 the value was “no binding”.
In the case of B11, the binding result is “no binding”.
As to B12, the binding result is “no binding”.
The same measure, in the same setting: for B13 the value was “no binding”.
On the same count and under the same terms, as for B14, the entry is “no binding”.
